The source of these data is publication PMC8347636.

Data set [1] in a line: immunofluorescence, % cells with plasma membrane CD24, Hs578T. The settings on record: glycan lost; control: wild type ER-tag CD24.
The nature of data set [2]: immunofluorescence, % cells with plasma membrane CD24, MDA-MB-231. Conditions: glycan lost; control: wild type ER-tag CD24.
The nature of data set [3]: immunofluorescence, % cells with plasma membrane CD24, MCF-7. The settings on record: glycan lost; control: wild type ER-tag CD24.
Data set [4] can be described thus: immunofluorescence, nuclear localisation, all cell lines. The settings on record: glycan lost; control: wild type ER-tag CD24.
Data set [5] is described as follows: immunofluorescence, % cells with plasma membrane CD24, HEK293T. The settings on record: glycan lost; control: wild type ER-tag CD24.
Data set [6] can be described thus: confocal immunofluorescence, % cells with plasma membrane CD24, MDA-MB-231. Conditions: glycan changed form; control: untreated cells, same construct.
A short description of data set [7]: confocal immunofluorescence, plasma membrane vs cytoplasm, MCF-7. The settings on record: glycan changed form; control: untreated cells, same construct.
Data set [8] can be described thus: confocal immunofluorescence, plasma membrane vs cytoplasm, HEK293T. The settings on record: glycan changed form; control: untreated cells, same construct.
Data set [9] can be described thus: confocal immunofluorescence, % cells with plasma membrane CD24, Hs578T. Conditions: glycan changed form; control: untreated cells, same construct.

B1: CD24: N36Q (protein)
parent chain: MGRAMVARLGLGLLLLALLLPTQIYSSETTTGTSSNSSQSTSNSGLAPNPTNATTKAAGGALQSTASLFVVSLSLLHLYS
On to B1, for which the localisation_or_trafficking entry in data set [1] is recorded as “decreases”; in [2], “no change”; in data set [3] it was “no change”; in [4], “no change”; in data set [5], “decreases”.

B2: CD24: kifunensine, WT-CD24 (protein)
parent chain: B1 parent chain
With B2, the localisation_or_trafficking entry in data set [6] was “decreases”.

B3: CD24: N52Q (protein)
parent chain: B1 parent chain
Regarding B3, the localisation_or_trafficking result is listed as “decreases” in data set [1]; “decreases” in [2]; “no change” in data set [3]; “no change” in data set [4]; “decreases” in [5].

B4: CD24: N36,52Q (protein)
parent chain: B1 parent chain
Regarding B4, the localisation_or_trafficking result was “decreases” in data set [1]; “decreases” in data set [2]; “no change” in [3]; “no change” in data set [4]; “decreases” in data set [5].

B5: CD24: kifunensine, wild type CD24 (protein)
parent chain: B1 parent chain
With B5, the localisation_or_trafficking entry in data set [7] is recorded as “no change”; in data set [8], “decreases”. In addition, in [9], the “localisation_or_trafficking, other: % decrease in cells with membrane CD24” value is recorded as “decreases”.
